According to patent CN117866905A (BEILAI PHARMACEUTICAL CO LTD, dated 2024):

T1: IL-17A重组蛋白(抗原), C端6×His标签 (human, UniProt Q16552 24-155, limits assumed, biotin in the ELISA of paragraph 227 (Biotin-IL-17A-His); site not stated)
T1 construct: Expressed in E. coli BL21 from pET28a and purified on a nickel column; also called IL-17A-His; Biotin-IL-17A-His
T1 sequence: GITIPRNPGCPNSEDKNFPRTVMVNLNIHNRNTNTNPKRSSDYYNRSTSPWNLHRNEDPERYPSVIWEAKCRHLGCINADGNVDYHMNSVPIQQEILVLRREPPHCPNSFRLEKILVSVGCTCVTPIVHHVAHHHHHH


Columns and labels:
[1] = molecular target: T1, IL-17A重组蛋白(抗原), C端6×His标签; assay: ELISA; antibody coated at 2 ug/mL, Biotin-IL-17A-His titrated from 10 ug/mL in 5-fold steps, HRP-streptavidin
[2] = molecular target: T1, IL-17A重组蛋白(抗原), C端6×His标签; assay: cell-based or functional assay
[3] = molecular target: 生物素化的IL-17A (ACRO Biosystems kit EP-139) (UniProt Q16552); assay: competition ELISA kit (ACRO EP-139); IL-17RA coated, biotinylated IL-17A, supernatant diluted 5-fold; inhibition of IL-17A/IL-17RA binding

| Binder | EC50 [1] | 阻断Human IL-17A蛋白激活293F-IL-17RA-IL-17Rc-ACT1-NFκB-Luc, IC50 [2] | 结合抑制率 [3] |
| --- | --- | --- | --- |
| 阳性对照抗体依奇珠单抗 (Ixekizumab) (antibody, human IgG4 S228P, kappa, V domains shown, also called 阳性抗体) VH: QVQLVQSGAEVKKPGSSVKVSCKASGYSFTDYHIHWVRQAPGQGLEWMGVINPMYGTTDYNQRFKGRVTITADESTSTAYMELSSLRSEDTAVYYCARYDYFTGTGVYWGQGTLVTVSS VL: DIVMTQTPLSLSVTPGQPASISCRSSRSLVHSRGNTYLHWYLQKPGQSPQLLIYKVSNRFIGVPDRFSGSGSGTDFTLKISRVEAEDVGVYYCSQSTHLPFTFGQGTKLEIKR | 10.1 µg/mL | 2.23 nM |  |
| G4-H10:Fc融合蛋白 (IL-17Nb secreted by G4-H10-MSC; VHH-(GGGGS)3-VHH-IgG4 Fc) (Fc fusion) QVQLVESGGGLVQPGGSLRLSCAASGEKLDYFAIGWFRQAPGKEREVVSCVTSSGSSTNYLSSVKDRFTISIDNAKNTVYLQMNSLKPEDTAIYYCASTILLCSDYISAFGTWGQGTQVTVASGGGGSGGGGSGGGGSEVQLVESGGGLVQPGGSLRLSCAASGFSIHIYAMGWYRQAPGKQRELVATITRGGVTNNADSVKGRFTISRDNAKNTAYLQMNSLKPEDTAVYYCNAGGTNGGYWGQGTQVTVSSAPEFLGGPSVFLFPPKPKDTLMISRTPEVTCVVVDVSQEDPEVQFNWYVDGVEVHNAKTKPREEQFNSTYRVVSVLTVLHQDWLNGKEYKCKVSNKGLPSSIEKTISKAKGQPREPQVYTLPPSQEEMTKNQVSLTCLVKGFYPSDIAVEWESNGQPENNYKTTPPVLDSDGSFFLYSRLTVDKSRWQEGNVFSCSVMHEALHNHYTQKSLSLSLGK |  |  | 60% |
